Measured values: the DeepSol protein solubility set

Test: soluble on expression in E. coli; label from the status in PepcDB or PDB records

| Sequence | soluble on expression in E. coli |
| --- | --- |
| DLFFGWGRKKSGLKAMNLAKKYKAKFILLEDGFIRSLNLGVENSPSFSMVKDDIGIYYDATMPSKLENLLNTCEFKDEEIKQAKKAIELIKKYKISKYNNNLDIPDNYFQKDEKRVLIITQTANDASLEFGLAKDFKTLDMIKDAIKENPKSTIYIKIHPDVLSGKKQSDLDLNSLPKECILITENFNPIALLEFFDKVYTKTSGMGFEALMQECECICYGMPFYAGWGLTKDKLECKRRMQKRSLEEVFYAAYILYAEY | not soluble |
| MHHHHHHSSGVDLGTENLYFQSNAMLDPLDILTNIDDVLPYYQAIFSAEEQKVVGYEVLGRILADSEIQSLGPFFLDAGIPEEYKLEVDNRIIRQALDRFLEADSDLLIFMNQDANLLMLDHGESFLELLKEYEAKGIELHRFVLEITEHNFEGDIEQLYHMLAYYRTYGIKIAVDNIGKESSNLDRIALLSPDLLKIDLQALKVSQPSPSYEHVLYSISLLARKIGAALLYEDIEANFQLQYAWRNGGRYFQGYYLVSPSETFLERDVLKQRLKTEFHQFITHEKKKLETVYEHSEQFYKRVHQAVTSLRKNNLSSDDDFIKKLAEELTDCSFRIYMCDEEGDQLTGNVFKQDGEWIYQPEYAEKNWSWRPYFLENIMRMRNLRKGFFSDLYSDLETGEMIRTFSYPMDDQMYLFIDLPYSYLYEQDGLI | soluble |
| MGSDKIHHHHHHMKIKIGKVEKRLNQIIEEEGAVYLTLLDPEEENIEEIAENVKDYADAIMVGGSIGIVNLDETVKKIKKITKLPIILFPGNVDGLSRYADAVFYMSLMNSANTYWVVTAPTLGAITILKYNLEPIPMAYLCIEPAKKTAVGYVGEIREIPQNKPKITAMYCLSAKFFGMRWAYLEAGSGASYPVNNETIALSKKLSGINIIVGGGIRKPEIAYEKVLAGADAIVTGNLLEENPKAVEMMYDAIKKAGKEKLKNK | not soluble |
| MRTPLSSVSPQLVQRFHELGFTPSSIRNFLGRPGFAAISRGEPASVLYAMRENEDSDFYPLIATFILHRPVAAEALHRVLGGSLTDQLTETGVLEIVDASKAYLTAKIDIRWLELEDDLFWVFSDTDASMIADHVPGKDHVLGVGAASLSL | not soluble |
| MGSDKIHHHHHHMKIVFITTVASSIYGFRAPVIKKLIGKNHQVYAFVSEFSDNELDIIREMGVTPVTYRSNRSGVNPFSDIKSTFLIFKALKKISPDLVFPYFAKPVIFGTFAAKLAGVPRIVGMLEGLGFAFTPQPEGIPLKTKIIKGILIALYRIALPMLESLIVLNPDDKDELLHQYGIKIKNIHILGGIGLDLRQYPYSEADIPDEKEPVKFLFIGRFLKEKGIDDFIRAAEQVKGKYPDTVFTALGAIDKSRGGGGDLERFIARDIIRFPGFVNNVSEVIKAHHIFVLPSYYREGVPRSTQEAMAVGRAVITTDVPGCRETVADKVNGFLIEPWNPRILAEKMIYFIENRAAVRLMANASYAIAKDKFDAEKVDLKFLDILKA | not soluble |
| MFVRICAMFGFVSDLLTAAVSSLDELLQDTPAHQIILGTAALYFLYNQYHNPSISRWYRSRNNASMKQRIIDSAYALAKNLPGVNQIIEKELNKELSSTREKLRIQRSGMTLREEIPEEGLSPQDILSAFDVDVEKCHFDFLSVTNDSPEREFLVERGDGKDSGALYAIHPKELTELLKEVYGATALTNPLHDKWPRINAMQAEVIRWCQNLFHGSKECYGLLTHGGTTSIIEAMAAYVIRARAKGIDYPEIVVPETAHAAFKKAAELTGAILITVPVDKKTGAVNPKVMSSYITRNTAVIVGSAPSFMNGIHDPVSELGQLAKKKNVPFHVDACLGGFLTAFLDTSSEPMDFRVPGVTSISADLHKYGCCPKGTSVCLFSEDSPALSVYAALNWSGGLYATPGILDGSTSGARVAEVYATLSYYGKNKYQEIAKSIITLRNAIQKELTTLLEEGNGLTSEDIYVYGNPQWSILGFRSNTCNAHFIADELEKRGWKLNLLQNPDGFHLCLTHVHTLVKGFETQFIKDLREAVIDVKNYPPGKKPSGNVKVYGAVGMMPIELQREICKQYQKARLNYTSASPGSLRIFTNVPVEEDEGLRNRKTEKYKV | not soluble |
| MGSDKIHHHHHHMDLITKQDGTTLHYSTMGQGYPVVLVHTAFDNYAVFNDLAKVLAKSFQVVLIDLRGHGYSDKPRNIEFYDFADDIKFLLDAIYIDEAAFIGHEMGALIAADMSVRNPGYISSITLVNPTSIEGELPEERLFRKYAHKIRNWEDDKQEKFLDKRRYYKARKMNKFLKHVVDTNSISTKEEIQAVKDVFKSEGIADVFKHVQVPTLIVAGEHGERTTTLEAKEVADLIQHCEFNVYQHSSAYPFVEEQAQFTQETTNFIQQHAPK | not soluble |
